Reference: patent US20250361268A1, “NOVEL ANTI-INFLAMMATORY PEPTIDE AND USE THEREOF” (NOVACELL TECHNOLOGY INC., priority 2022, published 2025)

T1: FPR1 (UniProt P21462 1-350, limits assumed)
T1 sequence (looked up): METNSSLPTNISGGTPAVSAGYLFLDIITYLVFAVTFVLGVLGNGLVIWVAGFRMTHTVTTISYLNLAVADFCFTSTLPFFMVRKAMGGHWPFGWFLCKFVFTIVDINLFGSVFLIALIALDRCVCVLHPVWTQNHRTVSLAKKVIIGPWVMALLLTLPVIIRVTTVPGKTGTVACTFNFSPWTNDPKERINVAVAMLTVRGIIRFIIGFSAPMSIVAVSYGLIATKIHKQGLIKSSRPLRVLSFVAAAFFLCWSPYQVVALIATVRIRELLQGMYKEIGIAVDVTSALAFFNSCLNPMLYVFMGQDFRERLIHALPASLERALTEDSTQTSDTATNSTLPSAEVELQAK

T2: formyl peptide receptor 2 (FPR2) (UniProt P25090 1-351, limits assumed)
T2 sequence (looked up): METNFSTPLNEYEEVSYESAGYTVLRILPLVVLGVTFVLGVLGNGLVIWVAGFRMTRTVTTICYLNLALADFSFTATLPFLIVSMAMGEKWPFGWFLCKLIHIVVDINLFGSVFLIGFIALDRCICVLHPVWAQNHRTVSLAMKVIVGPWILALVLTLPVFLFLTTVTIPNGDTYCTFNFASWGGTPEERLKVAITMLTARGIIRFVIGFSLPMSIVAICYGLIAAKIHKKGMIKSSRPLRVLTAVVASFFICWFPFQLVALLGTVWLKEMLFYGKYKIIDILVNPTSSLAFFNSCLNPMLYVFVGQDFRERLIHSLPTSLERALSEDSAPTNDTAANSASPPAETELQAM


Legend:
FPR1 = target: T1, FPR1; assay: cell-based or functional assay
[1] = target: T2, formyl peptide receptor 2 (FPR2); assay: cell-based or functional assay

EC50 for [Ca2+] (FPR1)	EC50 for [Ca2+] [1]	Binder
> 10 µM	< 0.01 µM	HMKYKVM (HELM PEPTIDE1{H.M.K.Y.K.V.[dM].[am]}$$$$V2.0; N-terminus assumed; SMILES CSCC[C@H](NC(=O)[C@@H](N)Cc1c[nH]cn1)C(=O)N[C@@H](CCCCN)C(=O)N[C@@H](Cc1ccc(O)cc1)C(=O)N[C@@H](CCCCN)C(=O)N[C@H](C(=O)N[C@H](CCSC)C(N)=O)C(C)C) [peptide of SEQ ID NO 21]
> 10 µM	< 0.01 µM	HMKYKVM (HELM PEPTIDE1{[CCCCCCCC(=O)[*:2]].H.M.K.Y.K.V.[dM].[am]}$$$$V2.0; SMILES CCCCCCCC(=O)N[C@@H](Cc1c[nH]cn1)C(=O)N[C@@H](CCSC)C(=O)N[C@@H](CCCCN)C(=O)N[C@@H](Cc1ccc(O)cc1)C(=O)N[C@@H](CCCCN)C(=O)N[C@H](C(=O)N[C@H](CCSC)C(N)=O)C(C)C) [peptide of SEQ ID NO 24]
> 10 µM	< 0.01 µM	HKYKPM (HELM PEPTIDE1{[CCCC(=O)[*:2]].H.K.Y.K.P.[dM].[am]}$$$$V2.0; SMILES CCCC(=O)N[C@@H](Cc1c[nH]cn1)C(=O)N[C@@H](CCCCN)C(=O)N[C@@H](Cc1ccc(O)cc1)C(=O)N[C@@H](CCCCN)C(=O)N1CCC[C@H]1C(=O)N[C@H](CCSC)C(N)=O) [peptide of SEQ ID NO 148]
> 10 µM	< 0.01 µM	MKYKVM (HELM PEPTIDE1{M.K.Y.K.V.[dM].[am]}$$$$V2.0; N-terminus assumed; SMILES CSCC[C@H](N)C(=O)N[C@@H](CCCCN)C(=O)N[C@@H](Cc1ccc(O)cc1)C(=O)N[C@@H](CCCCN)C(=O)N[C@H](C(=O)N[C@H](CCSC)C(N)=O)C(C)C) [peptide of SEQ ID NO 17]
> 10 µM	< 0.01 µM	MKYKVM (HELM PEPTIDE1{[CCCC(=O)[*:2]].M.K.Y.K.V.[dM].[am]}$$$$V2.0; SMILES CCCC(=O)N[C@@H](CCSC)C(=O)N[C@@H](CCCCN)C(=O)N[C@@H](Cc1ccc(O)cc1)C(=O)N[C@@H](CCCCN)C(=O)N[C@H](C(=O)N[C@H](CCSC)C(N)=O)C(C)C) [peptide of SEQ ID NO 19]
> 10 µM	< 0.01 µM	HMKYKVM (HELM PEPTIDE1{[ac].H.M.K.Y.K.V.[dM].[am]}$$$$V2.0; SMILES CSCC[C@H](NC(=O)[C@H](Cc1c[nH]cn1)NC(C)=O)C(=O)N[C@@H](CCCCN)C(=O)N[C@@H](Cc1ccc(O)cc1)C(=O)N[C@@H](CCCCN)C(=O)N[C@H](C(=O)N[C@H](CCSC)C(N)=O)C(C)C) [peptide of SEQ ID NO 22]
> 10 µM	< 0.01 µM	RWRYTYM (HELM PEPTIDE1{R.W.R.Y.T.Y.[dM].[am]}$$$$V2.0; N-terminus assumed; SMILES CSCC[C@@H](NC(=O)[C@H](Cc1ccc(O)cc1)NC(=O)[C@@H](NC(=O)[C@H](Cc1ccc(O)cc1)NC(=O)[C@H](CCCNC(=N)N)NC(=O)[C@H](Cc1c[nH]c2ccccc12)NC(=O)[C@@H](N)CCCNC(=N)N)[C@@H](C)O)C(N)=O) [peptide of SEQ ID NO 157]
> 10 µM	< 0.01 µM	HKYKPM (HELM PEPTIDE1{[CCCCCCCC(=O)[*:2]].H.K.Y.K.P.[dM].[am]}$$$$V2.0; SMILES CCCCCCCC(=O)N[C@@H](Cc1c[nH]cn1)C(=O)N[C@@H](CCCCN)C(=O)N[C@@H](Cc1ccc(O)cc1)C(=O)N[C@@H](CCCCN)C(=O)N1CCC[C@H]1C(=O)N[C@H](CCSC)C(N)=O) [peptide of SEQ ID NO 149]
> 10 µM	< 0.01 µM	HKYKPM (HELM PEPTIDE1{[ac].H.K.Y.K.P.[dM].[am]}$$$$V2.0; SMILES CSCC[C@@H](NC(=O)[C@@H]1CCCN1C(=O)[C@H](CCCCN)NC(=O)[C@H](Cc1ccc(O)cc1)NC(=O)[C@H](CCCCN)NC(=O)[C@H](Cc1c[nH]cn1)NC(C)=O)C(N)=O) [peptide of SEQ ID NO 147]
> 10 µM	< 0.01 µM	HKYKPM (HELM PEPTIDE1{H.K.Y.K.P.[dM].[am]}$$$$V2.0; N-terminus assumed; SMILES CSCC[C@@H](NC(=O)[C@@H]1CCCN1C(=O)[C@H](CCCCN)NC(=O)[C@H](Cc1ccc(O)cc1)NC(=O)[C@H](CCCCN)NC(=O)[C@@H](N)Cc1c[nH]cn1)C(N)=O) [peptide of SEQ ID NO 146]
> 10 µM	< 0.01 µM	PKYKVM (HELM PEPTIDE1{[CCCCCCCC(=O)[*:2]].P.K.Y.K.V.[dM].[am]}$$$$V2.0; SMILES CCCCCCCC(=O)N1CCC[C@H]1C(=O)N[C@@H](CCCCN)C(=O)N[C@@H](Cc1ccc(O)cc1)C(=O)N[C@@H](CCCCN)C(=O)N[C@H](C(=O)N[C@H](CCSC)C(N)=O)C(C)C) [peptide of SEQ ID NO 141]
> 10 µM	< 0.01 µM	IKYKPM (HELM PEPTIDE1{[CCCC(=O)[*:2]].I.K.Y.K.P.[dM].[am]}$$$$V2.0; SMILES CCCC(=O)N[C@H](C(=O)N[C@@H](CCCCN)C(=O)N[C@@H](Cc1ccc(O)cc1)C(=O)N[C@@H](CCCCN)C(=O)N1CCC[C@H]1C(=O)N[C@H](CCSC)C(N)=O)[C@@H](C)CC) [peptide of SEQ ID NO 144]
> 10 µM	< 0.01 µM	IKYKPM (HELM PEPTIDE1{I.K.Y.K.P.[dM].[am]}$$$$V2.0; N-terminus assumed; SMILES CC[C@H](C)[C@H](N)C(=O)N[C@@H](CCCCN)C(=O)N[C@@H](Cc1ccc(O)cc1)C(=O)N[C@@H](CCCCN)C(=O)N1CCC[C@H]1C(=O)N[C@H](CCSC)C(N)=O) [peptide of SEQ ID NO 142]
> 10 µM	< 0.01 µM	RWRYLYM (HELM PEPTIDE1{R.W.R.Y.L.Y.[dM].[am]}$$$$V2.0; N-terminus assumed; SMILES CSCC[C@@H](NC(=O)[C@H](Cc1ccc(O)cc1)NC(=O)[C@H](CC(C)C)NC(=O)[C@H](Cc1ccc(O)cc1)NC(=O)[C@H](CCCNC(=N)N)NC(=O)[C@H](Cc1c[nH]c2ccccc12)NC(=O)[C@@H](N)CCCNC(=N)N)C(N)=O) [peptide of SEQ ID NO 154]
> 10 µM	< 0.01 µM	RWRYFYM (HELM PEPTIDE1{R.W.R.Y.F.Y.[dM].[am]}$$$$V2.0; N-terminus assumed; SMILES CSCC[C@@H](NC(=O)[C@H](Cc1ccc(O)cc1)NC(=O)[C@H](Cc1ccccc1)NC(=O)[C@H](Cc1ccc(O)cc1)NC(=O)[C@H](CCCNC(=N)N)NC(=O)[C@H](Cc1c[nH]c2ccccc12)NC(=O)[C@@H](N)CCCNC(=N)N)C(N)=O) [peptide of SEQ ID NO 156]
> 10 µM	< 0.01 µM	IKYKPM (HELM PEPTIDE1{[ac].I.K.Y.K.P.[dM].[am]}$$$$V2.0; SMILES CC[C@H](C)[C@H](NC(C)=O)C(=O)N[C@@H](CCCCN)C(=O)N[C@@H](Cc1ccc(O)cc1)C(=O)N[C@@H](CCCCN)C(=O)N1CCC[C@H]1C(=O)N[C@H](CCSC)C(N)=O) [peptide of SEQ ID NO 143]
> 10 µM	< 0.01 µM	HMKYKVM (HELM PEPTIDE1{[CCCC(=O)[*:2]].H.M.K.Y.K.V.[dM].[am]}$$$$V2.0; SMILES CCCC(=O)N[C@@H](Cc1c[nH]cn1)C(=O)N[C@@H](CCSC)C(=O)N[C@@H](CCCCN)C(=O)N[C@@H](Cc1ccc(O)cc1)C(=O)N[C@@H](CCCCN)C(=O)N[C@H](C(=O)N[C@H](CCSC)C(N)=O)C(C)C) [peptide of SEQ ID NO 23]
> 10 µM	< 0.01 µM	MKYKVM (HELM PEPTIDE1{[ac].M.K.Y.K.V.[dM].[am]}$$$$V2.0; SMILES CSCC[C@H](NC(C)=O)C(=O)N[C@@H](CCCCN)C(=O)N[C@@H](Cc1ccc(O)cc1)C(=O)N[C@@H](CCCCN)C(=O)N[C@H](C(=O)N[C@H](CCSC)C(N)=O)C(C)C) [peptide of SEQ ID NO 18]
> 10 µM	< 0.01 µM	MRYKVM (HELM PEPTIDE1{[CCCC(=O)[*:2]].M.R.Y.K.V.[dM].[am]}$$$$V2.0; SMILES CCCC(=O)N[C@@H](CCSC)C(=O)N[C@@H](CCCNC(=N)N)C(=O)N[C@@H](Cc1ccc(O)cc1)C(=O)N[C@@H](CCCCN)C(=O)N[C@H](C(=O)N[C@H](CCSC)C(N)=O)C(C)C) [peptide of SEQ ID NO 15]
